Test results taken from paper PMC6291162.
One block for each molecule: values may come before it.

How the values were obtained:
[1] = target: proprietary Ral effector protein of the RalA G-LISA Activation Assay Kit; assay: ELISA-based assay; conditions: Absorbances normalized to a no template control (NTC); mean of one experiment performed in triplicate; parent: 1.163
[2] = target: proprietary Ral effector protein of the RalA G-LISA Activation Assay Kit; assay: ELISA; RalA G-LISA Activation Assay Kit (colorimetric); Ral effector protein on the Ral-BP binding plate; purified RALA incubated in the presence or absence of 15 uM GTP for 1.5 h at 25 °C, then 23.75 ng of RALA/GTP mixture applied; absorbances normalized to a no template control; one experiment in triplicate

Molecule: wild-type RALA (RAS-like small GTPase), 6-His-tagged recombinant protein (from UniProt P11233) D130G
response [1]: 0.281 absorbance

Molecule: wild-type RALA (RAS-like small GTPase), 6-His-tagged recombinant protein (from UniProt P11233) V25L
response [1]: 0.286 absorbance

Molecule: wild-type RALA (RAS-like small GTPase), 6-His-tagged recombinant protein (from UniProt P11233) V25M
response [1]: 0.649 absorbance

Now from value to molecule:

response [1]: 1.83 absorbance
Molecule: wild-type RALA (RAS-like small GTPase), 6-His-tagged recombinant protein (from UniProt P11233) S157A

fold change of binding against wild type [2]: 2 fold
B1: RALA G23D, 6-His-tagged recombinant protein (natural protein)
chain: MAANKPKGQNSLALHKVIMVGSDGVGKSALTLQFMYDEFVEDYEPTKADSYRKKVVLDGEEVQIDILDTAGQEDYAAIRDNYFRSGEGFLCVFSITEMESFAATADFREQILRVKEDENVPFLLVGNKSDLEDKRQVSVEEAKNRAEQWNVNYVETSAKTRANVDKVFFDLMREIRARKMEDSKEKNGKKKRKSLAKRIRERCCIL
